Target: the molecule itself
Assay: mass photometry

| Protein | stoichiometry N |
| --- | --- |
| Cryptococcus neoformans AIRs single enzymatic unit (phosphoribosyl-aminoimidazole synthetase), recombinant His-tagged (domain or fragment) GFGGAFDLAKAGYKDPILVSGTDGVGTKLRVALDHGKHNTVGIDLVAMSVNDLIVQGAEPLYFLDYYACSKLDVPVAADVITGIAEGCLQAGCALIGGETAEMPGMYHGDDYDLAGFAVGVVERAQILPTPDIASGDVLLALSSSGPHSNGFSLIRKIVSLSNLSLHDTAPWDKNTSVGDALLTPTKVYIKPLLPGIKSGLYKGMSHITGGGFTENIPRIFSSASNLGVKLDLTSYSLPAIWKWLMRAGNVEAKEMVRTFNCGVGMIIIVAKDKADAALSSLKENGEEAWVIGEVQEKKGVEYVGLDKFGL | 2 |
| Cryptococcus neoformans GARs single enzymatic unit (phosphoribosyl-glycinamide synthetase), recombinant His-tagged (domain or fragment) MPEITAFPQPKSDLSILLLGAGGREHALAFKLAQSSRVARIVVCPGNGGTALMGGKVSNLALPWGAPPAFRSIVEWAQKENIDLVVPGPEQPLVDGVEGAFKKVGIPVFGPSPAAAMLEGSKSLSKEFMARHNIPTAAFRSFTSTQYEDAVAYIKSKPFTSGRSVIKASGLAAGKGVLIPETDEEAFAALKSVMVDKEFGDAGDEVVVEEYLSGPEISVLAFSDGYTIVPMPAAQDHKRIGEGDTGLNTGGMGAYAPAPIATKEIMERCVKDVLEPTIKGMREDGYPFVGMLFTGFMITADGPRVLEYNVRFGDPETQALMLLLDEQTDLAEVLLACVERRLDSIKLGYKQGYAVSVVLASEGYPGSYPKGLPMTLNPTPEGVEVFHAGTKRSDNVTVTDGGRVLAVCASAPTLRAAVDLAYSGISQISFQGQTFRRDIAYRALSSEPPAEP | 2 |
| Cryptococcus neoformans bifunctional GARs/AIRs (phosphoribosyl-glycinamide synthetase / phosphoribosyl-aminoimidazole synthetase), recombinant His-tagged (enzyme, UniProt J9VYP5 1-802, looked up) MPEITAFPQPKSDLSILLLGAGGREHALAFKLAQSSRVARIVVCPGNGGTALMGGKVSNLALPWGAPPAFRSIVEWAQKENIDLVVPGPEQPLVDGVEGAFKKVGIPVFGPSPAAAMLEGSKSLSKEFMARHNIPTAAFRSFTSTQYEDAVAYIKSKPFTSGRSVIKASGLAAGKGVLIPETDEEAFAALKSVMVDKEFGDAGDEVVVEEYLSGPEISVLAFSDGYTIVPMPAAQDHKRIGEGDTGLNTGGMGAYAPAPIATKEIMERCVKDVLEPTIKGMREDGYPFVGMLFTGFMITADGPRVLEYNVRFGDPETQALMLLLDEQTDLAEVLLACVERRLDSIKLGYKQGYAVSVVLASEGYPGSYPKGLPMTLNPTPEGVEVFHAGTKRSDNVTVTDGGRVLAVCASAPTLRAAVDLAYSGISQISFQGQTFRRDIAYRALSSEPPAEPKGLTYAAAGVSVDAGNDLVEAIKPVVKATRRPGADSDIGGFGGAFDLAKAGYKDPILVSGTDGVGTKLRVALDHGKHNTVGIDLVAMSVNDLIVQGAEPLYFLDYYACSKLDVPVAADVITGIAEGCLQAGCALIGGETAEMPGMYHGDDYDLAGFAVGVVERAQILPTPDIASGDVLLALSSSGPHSNGFSLIRKIVSLSNLSLHDTAPWDKNTSVGDALLTPTKVYIKPLLPGIKSGLYKGMSHITGGGFTENIPRIFSSASNLGVKLDLTSYSLPAIWKWLMRAGNVEAKEMVRTFNCGVGMIIIVAKDKADAALSSLKENGEEAWVIGEVQEKKGVEYVGLDKFGL | 2 |

— paper PMC8449271 (The Journal of Biological Chemistry, 2021)
